Experimental data published in patent US20260167731A1 (DOMAIN THERAPEUTICS, published 2026).
Values joined by “and” are separate entries in the source; they are usually repeats but may differ in a detail not shown here. Identical values can stand only once.

B1: humanized anti-CCR8 mAb 2-13 (antibody, human IgG1, kappa)
heavy: not shown
light: DIVMTQAAPSLSVTPGESASISCTSSKSLLHSNGNTYLYWFLQKPGQSPQLLIYRMSNLASGVPDRFSGSGSGTAFTLKISRVEAEDVGVYYCMQHREYPFTFGSGTKLEIKRTVAAPSVFIFPPSDEQLKSGTASVVCLLNNFYPREAKVQWKVDNALQSGNSQESVTEQDSKDSTYSLSSTLTLSKADYEKHKVYACEVTHQGLSSPVTKSFNRGEC
notes: Humanized, human IgG1 allotype G1m17 Fc with the terminal lysine deleted and the SDIE mutations
B2: afucosylated humanized anti-CCR8 mAb 2-16 (antibody, human IgG1, kappa)
heavy: not shown
light: B1 light
modifications: afucosylated Fc glycan
notes: Same chains as 2-13, produced with 2-deoxy-2-fluoro-L-fucose (afucosylated)
B3: anti-CCR8 mAb 2-2 (antibody, V domains shown)
VH: QVQLKESGPGLVAPSQSLSITCTVSGLSMNDYVVTWIRQPPGKGLEWLGVIWGGGNTYYNSDLKSRLSITKDNSKSQVFFKMSSLQTDDTAVYYCARRHRDYALDYWGQGISVTVSS
VL: DVVMTQTPLSLPVSLGDQASISCRSSQSLVYSNGNTYLHWYLQKPGQSPKLLIYKVSNRFSGVPDRFSGSGSGTDFTLKISRVEAEDLGVYFCSQSTYVPPTFGGGTKLEIK
B4: chimeric anti-CCR8 mAb 2-18 (antibody, human IgG1, kappa)
heavy: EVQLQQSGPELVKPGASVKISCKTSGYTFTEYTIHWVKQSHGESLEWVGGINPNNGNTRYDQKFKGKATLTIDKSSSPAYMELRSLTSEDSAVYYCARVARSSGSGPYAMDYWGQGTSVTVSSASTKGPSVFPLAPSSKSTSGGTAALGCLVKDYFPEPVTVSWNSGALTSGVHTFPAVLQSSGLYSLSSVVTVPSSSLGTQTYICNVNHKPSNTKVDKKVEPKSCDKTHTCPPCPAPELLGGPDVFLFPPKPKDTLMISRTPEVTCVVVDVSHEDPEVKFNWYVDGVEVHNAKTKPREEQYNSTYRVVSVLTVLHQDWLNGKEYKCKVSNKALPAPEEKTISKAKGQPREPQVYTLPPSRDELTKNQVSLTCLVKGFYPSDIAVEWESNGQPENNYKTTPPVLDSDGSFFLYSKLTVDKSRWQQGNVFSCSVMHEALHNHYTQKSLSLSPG
light: DVVMTQTPLSLPVSLGDQASISCRCTQSLLHTNGDTYLHWYLQKPGQSPKLLIYKVSNRFSGVPDRFSGSGSGTDFTLKISRVEAEDLGVYFCSQSTHVPYTFGGGTKLEIKRTVAAPSVFIFPPSDEQLKSGTASVVCLLNNFYPREAKVQWKVDNALQSGNSQESVTEQDSKDSTYSLSSTLTLSKADYEKHKVYACEVTHQGLSSPVTKSFNRGEC

Experiments:
human CCR8 [1] = target: T1, human CCR8 (human, UniProt P51685 1-355); assay: cell-based or functional assay
human CCR8 [2] = target: T1, human CCR8; assay: cell-based or functional assay; remark: listed apart in the source
[3] = target: pm2, modified CCR8 related peptide (human, sulfated tyrosine at Y16); assay: ELISA on coated CCR8 peptide (500 ng/mL), OD [cont.]
In short: (§1)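 Each antibody was incubated on the coated peptide panel for 90 min at room temperature at 1 μg/mL and at a tenfold dilution, with unbound mAb washed away. Colour was developed with TMB for 15 min.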

[4] = target: pm5, modified CCR8 related peptide (human, sulfated tyrosines at Y15 and Y17); assay: as above
In short: as §1

[5] = target: pm1, modified CCR8 related peptide (human, sulfated tyrosine at Y15); assay: as above
In short: as §1

[6] = target: T2, pwt1, unmodified CCR8 related peptide (human, none (non-sulfated Y15, Y16, Y17)); assay: as above
T2 construct: First 34 amino acids of human CCR8, synthetic; also called unmodified peptide
In short: as §1

[7] = target: pm6, modified CCR8 related peptide (human, sulfated tyrosines at Y16 and Y17); assay: as above
In short: as §1

[8] = target: pm4, modified CCR8 related peptide (human, sulfated tyrosines at Y15 and Y16); assay: as above
In short: as §1

[9] = target: pm8, modified CCR8 related peptide (human, sulfated tyrosines at Y15, Y16 and Y17); assay: as above
In short: as §1

[10] = target: pm3, modified CCR8 related peptide (human, sulfated tyrosine at Y17); assay: as above
In short: as §1

human CCR8 [11] = target: T1, human CCR8; assay: cell-based or functional assay; remark: listed apart in the source
human CCR8 [12] = target: T1, human CCR8; assay: flow cytometry, HUT78 cells (endogenous CCR8)
Description: The same staining protocol was applied on human CCR8 transfected CHO cell line versus wild type CHO cell line, cutaneous T cell lymphoma HUT78 cell line and human activated T cell model.
Briefly, 1·10⁵ cells per well in a 96 well plate were incubated with a dilution of unconjugated anti-CCR8 mAb at 10 μg/mL then diluted at 1/3.33, 4 dilution points (during 30 min at 4° C.). In human activated T cells model, prior to mAb incubation, cells were first incubated with 200 nM of hCCL1 (R&D Systems, Minneapolis, MN, USA) or buffer PBS (Invitrogen by Thermofisher Scientific, Illkirch-Graffenstaden, France) supplemented by 2% Fetal Bovine Serum (Invitrogen by Thermofisher Scientific, Illkirch-Graffenstaden, France) and 2 mM EDTA (Invitrogen by Thermofisher Scientific, Illkirch-Graffenstaden, France) during 1 hour at 4° C. To determine EC50 value, 8 concentrations of anti-CCR8 mAb were tested. Unbound antibodies were washed away with PBS (Invitrogen by Thermofisher Scientific, Illkirch-Graffenstaden, France) supplemented by 2% Fetal Bovine Serum (Invitrogen by Thermofisher Scientific, Illkirch-Graffenstaden, France) and 2 mM EDTA (Invitrogen by Thermofisher Scientific, Illkirch-Graffenstaden, France). Subsequently, cells are centrifuged (5 min at 400 g) and bound antibody is detected with F(ab′)₂-Goat anti-Mouse IgG (H+L) Cross-Adsorbed Secondary Antibody, Alexa Fluor 488 (dilution 1/500) (Invitrogen by Thermofisher Scientific, Illkirch-Graffenstaden, France) or with F(ab′)₂-Goat anti-Human IgG Fc Secondary Antibody, PE (Invitrogen by Thermofisher Scientific, Illkirch-Graffenstaden, France) (dilution 1/1000) at 4° C. for 30 min. Detection reagent is washed away and cells are centrifuged (5 min at 400 g) and resuspended in 30 μL PBS. Bound detection antibody is quantified on a MacsQuant16 (Miltenyi, Gladbach, Germany) (B1 or B2 channel, 5000 events per acquisition). During the experiment, the respective isotype mAb controls (mouse IgG1, mouse IgG2a, mouse IgG2b, mouse IgG3 or human IgG1) (Biolegend, Amsterdam, The Netherlands) are included to exclude any unspecific binding events.
EC50 values were determined via nonlinear fit “log(agonist)vs.response−Variable slope (four parameters)” function of Graphpad prism. EC50 values were not constantly determined in the same experiments.

hCCR8 SNAP-tag = target: T3, hCCR8 SNAP-tag (human, UniProt P51685 1-355, SNAP-tag labelled with Lumi4-Terbium); assay: HTRF Tag-lite, inhibition of hCCL1-AF647 binding to SNAP-tag hCCR8 on HEK-293
T3 construct: also called human CCR8 engineered with a SNAP-tag at the N-terminus; not shown: SNAP-tag at the N-terminus
Description: The inhibition of CCL1 binding to hCCR8 was evaluated with the Tag-Lite® technology from Cisbio (Revvity). Human CCR8 is engineered with a SNAP-tag at the N-terminus of the GPCR. hCCR8 SNAP-tag is transiently transfected on HEK-293 cell line using FuGene® (Promega, Madison, WI, USA). 48 hours after transfection, cells are labeled with the substrate Lumi4-Terbium® (Cisbio, Codolet, France) which covalently reacts with the SNAP-tag, for 1 h at 37° C. […] The Kd is previously obtained in a saturation binding assay on the same cells. […] The plate is next incubated at 21° C. for 2 h. Detection of HTRF signal is performed on the multiplate reader EnVision (PerkinElmer, Waltham, MA, USA). The HTRF (665/620) ratio is calculated by EnVision software, the data exported are considered as the total binding. The specific binding is calculated then by subtracting the non-specific signal from the total binding. The Ki and IC₅₀are calculated using the “One site—Fit Ki” and “One site—FitlogIC50” from GraphPad Prism 9 (Graphpad Software, San Diego, CA, USA), respectively.

human CCR8 [13] = target: T1, human CCR8; assay: cell-based or functional assay; remark: listed apart in the source
human CCR8 [14] = target: T1, human CCR8; assay: cell-based or functional assay; remark: listed apart in the source
human CCR8 [15] = target: T1, human CCR8; assay: flow cytometry, inhibition of hCCL1-AF647 binding to hCCR8 CHO cells
In short: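 hCCR8-transfected CHO cells preincubated 30 min at 4 °C with anti-CCR8 mAb from 10 μg/mL, 1/3 dilutions, 8 concentrations. Bound CCL1 quantified by flow cytometry. IC₅₀ from sigmoidal variable-slope fit.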

human CCR8 [16] = target: T1, human CCR8; assay: cell-based or functional assay; remark: listed apart in the source
human CCR8 [17] = target: T1, human CCR8; assay: flow cytometry, hCCR8 transfected CHOK1 cells
In short: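 Bound mAb detected with Alexa Fluor 488 anti-mouse IgG or PE anti-human IgG Fc (30 min, 4 °C) by flow cytometry; isotype mAbs controlled unspecific binding.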

human CCR8 [18] = target: T1, human CCR8; assay: cell-based or functional assay; remark: listed apart in the source

Chain of pm4, modified CCR8 related peptide (human, sulfated tyrosines at Y15 and Y16) (peptide, as listed by the source): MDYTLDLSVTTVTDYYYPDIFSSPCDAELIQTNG
T2 sequence (peptide, as listed by the source): as above
Chain of pm2, modified CCR8 related peptide (human, sulfated tyrosine at Y16) (peptide, as listed by the source): as above
Chain of pm6, modified CCR8 related peptide (human, sulfated tyrosines at Y16 and Y17) (peptide, as listed by the source): as above
Chain of pm8, modified CCR8 related peptide (human, sulfated tyrosines at Y15, Y16 and Y17) (peptide, as listed by the source): as above
Chain of pm1, modified CCR8 related peptide (human, sulfated tyrosine at Y15) (peptide, as listed by the source): as above
Chain of pm5, modified CCR8 related peptide (human, sulfated tyrosines at Y15 and Y17) (peptide, as listed by the source): as above
Chain of pm3, modified CCR8 related peptide (human, sulfated tyrosine at Y17) (peptide, as listed by the source): as above

| Binder | IC50, CCL1 induced hCCR8 Gi2 signaling (BRET, HEK-293) (human CCR8 [1]) | IC50, CCL1 induced hCCR8 Gi2 signaling (BRET) at pH 6.5 (human CCR8 [2]) | IC50, CCL1 induced hCCR8 Gi2 signaling (BRET) at pH 7.4 (human CCR8 [2]) | binding result [3] | binding result [4] | binding result [5] | binding result [6] | binding result [7] | binding result [8] | binding result [9] | binding result [10] | hCCL1 (100 nM) residual response in %, Protocol #2, mAb 0.08 µg/mL ([…] nM) (human CCR8 [11]) [%] | hCCL1 (100 nM) residual response in %, Protocol #2, mAb 0.4 µg/mL (2.67 nM) (human CCR8 [11]) [%] | hCCL1 (100 nM) residual response in %, Protocol #2, mAb 10 µg/mL (66.7 nM) (human CCR8 [11]) [%] | hCCL1 (100 nM) residual response in %, Protocol #3, mAb 0.05 µg/mL (0.33 nM) (human CCR8 [11]) [%] | hCCL1 (100 nM) residual response in %, Protocol #3, mAb 0.5 µg/mL (3.33 nM) (human CCR8 [11]) [%] | hCCL1 (100 nM) residual response in %, Protocol #3, mAb 5 µg/mL (33.3 nM) (human CCR8 [11]) [%] | % of labelled cells (human CCR8 [12]) [%] | ADCC EC50, HUT78 targets, NK cells Donor 1 (human CCR8 [13]) [pM] | ADCP % Max of phagocytosis, HUT78 targets, monocyte-derived macrophages Donor 9 (human CCR8 [14]) [%] | other results |
| --- | --- | --- | --- | --- | --- | --- | --- | --- | --- | --- | --- | --- | --- | --- | --- | --- | --- | --- | --- | --- | --- |
| B1 | 0.035 µg/mL and 0.232 nM | 0.025 µg/ml and 0.165 nM | 0.035 µg/ml and 0.232 nM | binds | binds | binds | binds | binds | binds | binds | binds | 74 | 54 | 40 | 89 | 63 | 51 | 32 | 6.43 | 9.65 | IC50 (hCCR8 SNAP-tag): 0.09 µg/mL and 0.6 nM; Ki (hCCR8 SNAP-tag): 0.05 µg/mL and 0.3 nM; ADCC EC50, HUT78 targets, NK cells Donor 2 (human CCR8 [13]): 2.16 pM |
| B2 | – | – | – | – | – | – | – | – | – | – | – | – | – | – | – | – | – | 34 | 2.24 | 8.29 | EC50 (human CCR8 [12]): 400 pM; MFI fold change to isotype ctrl (human CCR8 [12]): 2.5 fold; ADCC EC50, HUT78 targets, NK cells Donor 2 (human CCR8 [13]): 0.42 pM |
| B3 | 0.143 µg/mL and 0.954 nM | 0.414 µg/ml and 2.76 nM | 0.359 µg/ml and 2.4 nM | binds | binds | binds | binds | binds | binds | binds | binds | 99 | 97 | 97 | 99 | 84 | 75 | – | – | – | IC50 (human CCR8 [15]): 2.65 µg/mL and 15.2 nM; Top plateau values in presence of 5 µg/mL mAb (% of hCCL1 (100 nM)), protocol #3 (human CCR8 [16]): 133%; % positive cells (human CCR8 [17]): 85.2%; MFI fold change to isotype ctrl (human CCR8 [17]): 11.9 fold |
| B4 | – | – | – | – | – | – | – | – | – | – | – | – | – | – | – | – | – | – | – | 7.27 | ADCC % Max lysis, HUT78 targets, NK cells Donor 3 (human CCR8 [18]): 25%; ADCC % Max lysis, HUT78 targets, NK cells Donor 4 (human CCR8 [18]): 28%; ADCC EC50, HUT78 targets, NK cells Donor 3 (human CCR8 [18]): 218 pM; ADCC EC50, HUT78 targets, NK cells Donor 4 (human CCR8 [18]): 53 pM |
